From patent US20230192808A1 (REGENTS OF THE UNIVERSITY OF COLORADO A BODY CORPORATE, published 2023)
One block for each binder: values may come before it. Where no end group is shown, it is not given here. The star is where a group is joined. Biotin = O=C1N[C@H]2[C@H](CS[C@H]2CCCCC(=O)*)N1; PEGS = not defined here

Assays:
HLA-DRB1*07:01 = target: T1, HLA-DRB1*07:01 (human); assay: flow cytometry, biotinylated peptide on HLA-expressing T2 cells, streptavidin-PE
T1 construct: whole, on cells; on T2 cells by the general method; the making of this line is not described on its own; also called resistant allele (NMO)

HLA-DRB1*04:01 = target: T2, HLA-DRB1*04:01 (human, UniProt P01903 26-216; P01911 30-227, limits assumed); assay: as above
T2 construct: whole, on cells; on T2 cells; also called DR4
T2 MHC II alpha: not shown
T2 MHC II beta: not shown

HLA-DRB1*04:01 G86L = target: T3, HLA-DRB1*04:01 G86L (human); assay: as above
T3 construct: pocket 1 variant on T2 cells

[1] = target: T4, HLA-DQ2 (DQA1*05:01/DQB1*02:01) (human, UniProt P01909 24-216, limits assumed); assay: flow cytometry, biotinylated peptide titrated on HLA-expressing T2 cells, streptavidin-PE
T4 construct: whole, on cells; on T2 cells

[2] = target: T5, HLA-DQ2 trans (DQA1*03:01/DQB1*02:01) (human, UniProt P01909 24-216, limits assumed); assay: as above
T5 construct: whole, on cells; on T2 cells
T5 MHC II alpha: not shown
T5 MHC II beta: not shown

[3] = target: T6, HLA-DQ2 A57D (DQA1*05:01/DQB1*02:01 A57D) (human, UniProt P01909 24-254; P01920 33-261); assay: as above
T6 construct: A57D variant of the DQB1 chain, cloned into T2 cells
T6 alpha: not shown
T6 beta: not shown

[4] = target: T7, HLA-DQ8 (DQA1*03:01/DQB1*03:02) (human, UniProt P01909 24-216; P01920 33-230, limits assumed); assay: as above
T7 construct: whole, on cells; on T2 cells
T7 MHC II alpha: not shown
T7 MHC II beta: not shown

HLA-DRB1*15:01 = target: T8, HLA-DRB1*15:01 (human, UniProt P01903 26-216; P01911 30-227, limits assumed); assay: flow cytometry, biotinylated peptide on HLA-expressing T2 cells, streptavidin-PE
T8 construct: whole, on cells; HLA class II molecule expressed on class II negative T2 cells that carry DRA1*01:01

HLA-DRB1*15:01 F47Y = target: T9, HLA-DRB1*15:01 F47Y (human); assay: as above
T9 construct: engineered allele on T2 cells

HLA-DRB1*15:01 A71R = target: T10, HLA-DRB1*15:01 A71R (human); assay: as above
T10 construct: engineered allele on T2 cells

HLA-DRB1*15:01 V86G = target: T11, HLA-DRB1*15:01 V86G (human); assay: as above
T11 construct: engineered allele on T2 cells

Binder: SQVETDDLILKPGVV (peptide, UniProt P55087 285-299, looked up, also: biotinylated, site not given here, also called aquaporin 4 peptide 6) [AQP4-6 peptide]
- binding result (HLA-DRB1*07:01): no binding (tested: 100 µM (general method))

- binding result (HLA-DRB1*04:01): no binding (tested: 100 uM)
- binding result (HLA-DRB1*04:01 G86L): no binding (tested: 100 uM)
- binding result [1]: no binding
- binding result [2]: binds
- binding result [3]: binds
Binder: {Biotin-PEGS}-GQVELGGGSSPETLI (reading uncertain, also called HIP9; HIP9-NPY) [Hybrid Insulin Peptide HIP8-NPY]

- binding result (HLA-DRB1*04:01): no binding (tested: 100 uM)
- binding result (HLA-DRB1*04:01 G86L): no binding (tested: 100 uM)
Binder: {Biotin-PEGS}-GQVELGGWSKMDQLA (reading uncertain) [Hybrid Insulin Peptide HIP1-WE14]

- binding result (HLA-DRB1*04:01): binds
- binding result [1]: no binding
- binding result [4]: binds
- binding result [2]: binds
- binding result [3]: binds
Binder: HLVEELYLVAGEEG (also: biotinylated, site not given here) [Insulin Mimotope peptide]

- binding result (HLA-DRB1*04:01 G86L): binds
- binding result (HLA-DRB1*15:01 F47Y): binds
- binding result (HLA-DRB1*15:01 A71R): binds
- binding result (HLA-DRB1*15:01 V86G): binds
Binder: AQGTLSKIFKLGGRDSRSGSPMARR (also: biotinylated, site not given here) [MBP^146-170 peptide]
- binding result (HLA-DRB1*15:01): no binding (tested: 100 µM (general method))

- binding result (HLA-DRB1*15:01): binds
- binding result (HLA-DRB1*04:01 G86L): binds
Binder: ENPVVHFFKNIVTPRTPPP (also: biotinylated, site not given here) [MBP^83-101 peptide]

- binding result (HLA-DRB1*04:01 G86L): no binding (tested: 100 uM)
Binder: AMMIARFKMFPEVKEKG (also: biotinylated, site not given here) [GAD65^265-281 peptide]

Binder: RSQVETDDLILKPGV (peptide, UniProt P55087 284-298, looked up, also: biotinylated, site not given here, also called aquaporin 4 peptide 5) [AQP4-5 peptide]
- binding result (HLA-DRB1*07:01): no binding (tested: 100 µM (general method))

- binding result (HLA-DRB1*04:01 G86L): no binding (tested: 100 uM)
Binder: FFRDHSYQEEA (also: biotinylated, site not given here) [MOG^97-109 peptide]

- binding result (HLA-DRB1*04:01): no binding (tested: 100 uM)
- binding result (HLA-DRB1*04:01 G86L): no binding (tested: 100 uM)
- binding result [4]: no binding
- binding result [2]: binds
- binding result [3]: binds
Binder: {Biotin-PEGS}-SLQPLALEAEDLQV (reading uncertain) [Hybrid Insulin Peptide HIP11-C peptide]

- binding result (HLA-DRB1*04:01): no binding (tested: 100 uM)
- binding result (HLA-DRB1*04:01 G86L): no binding (tested: 100 uM)
Binder: {Biotin-PEGS}-GQVELGGGNAVEVLK (reading uncertain) [Hybrid Insulin Peptide HIP6-IAPP2]

- binding result (HLA-DRB1*15:01): binds
- binding result (HLA-DRB1*04:01): binds
Binder: LVRYWISAFP (also: biotinylated, site not given here, also called RASDRP2) [RASGRP2 78-87 peptide]
